Earlier results in article PMC4359947.

Target: CAR D1 (Homo sapiens) (UniProt P78310)

Sequence of CAR D1 (P78310 20-134): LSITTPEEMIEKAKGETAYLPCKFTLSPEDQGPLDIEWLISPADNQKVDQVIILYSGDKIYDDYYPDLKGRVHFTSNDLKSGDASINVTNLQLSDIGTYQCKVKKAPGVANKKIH

Kd: 16 µM
Substance: CAR D1 (from UniProt P78310)
